Reference: the nanobody polyreactivity screen of Harvey et al. (2022)

Assay: yeast display, Sf9 membrane polyspecificity reagent, FACS + sequencing; frameworks hold sequencing errors
Summary of the method: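 In a synthetic yeast display library (Saccharomyces cerevisiae BJ5465), nanobody expression was induced with galactose for 36–48 hours. FACS gates were set low and high (top ~1%) using anti-HA fluorescence for expression and streptavidin fluorescence for binding of the Sf9 membrane reagent. Each polyreactivity label is drawn from the gate of origin.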

Row | Sequence | polyreactivity (PSR sort gate)
1 | QVQLVESGGGLVQAGGSLRLSCAAYGRTFDTYAMGGYRQAPGKERELVAAITKGGGSTYYADSVKGRFTISRDNAKNTVYLQMNSLKPEDTAVYYCNDRVHGEYFHGIRYYYWGQGTQVTVSS | low polyreactivity
2 | QVQLVESGGGLVQAGGSLRLSCAASGSISEIYAMGWYRQAPGKERELVAAISWSGGRTYYADSVKGRFTISRDNAKNTVYLQMNSLKPEDTAVYYCAARYRGGYYFGYEPYYYWGQGTQVTVSS | high polyreactivity
3 | QVQLVESGGGLVQAGGSLRLSCAASGRTFAAYAMGWYRQAPGKERELGAAISSSSGNTYYADSVKGRFTISRDNAKNTVYLQMYSLKPEDTAVYYCNAQRRFNANYWYDYWGQGTQVTVAS | high polyreactivity
4 | QVHLVESGGGLVQAGGSLRLSCAASGRTFDLNAMGWYRQAPGKERELVAGISSSGGRTYYADSVKGRFTISRDNAKNTVYLQMNSLIPEDTAVYYCAKVYPSYVLRKYDYWGQGTQVTVSS | high polyreactivity
5 | QVQLVESGGGLVQAGGSLRLSCAASGSSVYSYAMGWYRQAPGKERELVAAISWRGGSTYYADSVKGRFTISRDNAKNTVYLQMNSLKPEDTAVYYCAAYYYTGPTTVESDYWGQGTQVTVSS | high polyreactivity
6 | QVQLVESGGGLVQAGGSLRLSCAASGSTFRFYAMGWYRQAPGKEREFVAAISTSGGSTYYADSVKGRFTISRDNAKNTVYLQMISLKPEETAVYYCATRRRIRSSFYYDNDYWGLGTQVTVSS | high polyreactivity
7 | QVQLVESGGGLVQAGGSLRLSCAASGRIFRYNAMGWYRQAPGKERELVASITSAGSTIYADSVKGRFTISRDNAKNTVYLQMNSLKPEDTAVYYCNKRRAYGYYLFDYWGQGTQVTVSS | high polyreactivity
8 | QVQLVESGGGLVQAGGSLRLSCAASGRTFYRNAMGWYRQAPGKERELVAGITRGGRTYYADSVKGRFTISRDNAKNTVYLQMNSLKPEDTAVYYCAKGRSWQIYYKGGIKGGYWGQGTQVTVSS | low polyreactivity
9 | QVQLVESGGGLVQAGGSLRLSCAASGRISDVYVMVWYRQAPGKERELFAAITWSGGDTYYADSVKGRFTISRDNAKNTVYLQMNSLKPEDTEVYYCTADTGKWGGNGWYDFDYWGQGTQVTVSS | low polyreactivity
10 | QVQLVESGGGLVQAGGSLRLSCAASGRIFAYYAMGWYRQAPGKERELVAVISKSGGSTNYADSVKGRFTISRDYAKNTVYLQMNSLKPEDTAVYYCAKRAYDPEMYYWGQGTQVTVSS | low polyreactivity
11 | QVQLVESGGGLVQAGGSLRLSCAASGSIFHSYAMGWYRQAPGKERELVAGITSSCDRTNYADSVKGRFTISRDNAKITVYLQMNSLKPEDNAVYYCAAVARYPKGRTRRGYGYWGQGTQVTVSS | high polyreactivity
12 | QVQLVESGVGLVQPGGSLRLSSAASGSTSLVNAMRRYRQAPGKERELVAAITRGGNTYYADSVKGRFTISRDNAKNTVYLQMNSLKPEDTAVYYCAAEDHSELGQYDYWGQGTQVTVSS | low polyreactivity
13 | QVQLVESGGGLVQAGGSLRLSCAASGRIFVYYAMGWYRQAPGKEMELVASISYSGASTYYADSVKGRFTISRDNAKNTVYLQMNSLKPEDTAVYYCNTDGDDFFHVIYDYWGQGTQVTVSS | low polyreactivity
14 | QVQLVESGGGLVQAGGSLRLSCAASGSIFGGYAMGWYRQAPGKERELVATINLGGGSTYADSVKGRFTISRDNAKNTVYLQMNSLKPEDTAVYYCAADVANSIYDYWGQGTQVTVSS | low polyreactivity
15 | QVQLVESAAGLVQAGGSLRLSCAASGSTFAGNAMGWYRQAPGKERELVAAIDSSTGSTYYADSVKGRFTISRDNAKNTVYLQMNSLKPEDTAVYYCNKTSFLVKLDYWGQGTQVTVSS | low polyreactivity
16 | QVQLVESGGGLVQAGGSLRLSCAASGRTFFYYAMGWYRQAPGKERELVAAISGRGGRTYYADSVKGRFTISRDNAKNTVYLQMNSLKPEDTAVYYCNTRGTRIASGHYYWGQGTQVTVSS | high polyreactivity
17 | KGHLEESGGGLVQAGGRLRLSCPASGNTFGDYAMGRYRQAPGKERELVAAISRSGGSTSYADSVKGRFTISRDNAKNTFYLQMNSLKPVDTAVYYCAAYWQRFGYDYWGQGTQVTVSS | low polyreactivity
18 | QVQLVESGGGLVQAGGSLRLSCAASGFIFYYNAMGWYRQAPGKERELVATIRGSGGSTYYADSVKGRFTISRDNAKNTVYLQMNSLKPEDTAVYYCATTIYGLTSRLYYWGQGTQVTVSS | high polyreactivity
19 | QVQLVESGGGLVQAGGRLRLICAASGSTFVINDMGWYRQAPGKERELVASISWSGGDTYYADSVKGRFTISRDNAKNTVYLQMNSLKPEDTAVYYCNRVSPYGSYDYWGQGTQVTVSS | low polyreactivity
20 | QVQLVESGGGLVQAGGSLRLSSAASGIFWNYAMGWYRQAPGKERELVAAISGSGGSTYYADSVKGRFTISRDNAKNTVYLQINSLKPEDTAVYYCAAEPGNHIWIYDYWGQGTQVTVSS | low polyreactivity
21 | QVQIVETGGGLVQAGGSLRLSCAASGRIFFRNPMGWYRPAPRKEREFVAAINWSGGSTYYADSVKGRFTISRDNAKNTVYLQMNSLKPEDTAVYYCAARGSRGGRRGATASMDYWGQGTQVTVSS | high polyreactivity
22 | QVQLVESGGGLVQAGGSLRLSCAASGRTIWVYAMGWYRQAPGKERELVAAIRWSAGTTYYADSVKGRFTISRDNAKNTVYLQMNSLKPEDTAVYYCAADASSRYGVLEVDYWGQGTQVTVSS | high polyreactivity

Row | Sequence | polyreactivity (PSR sort gate)
23 | QVQLVESGGGLFQAGGSLRLSCAASGNTFLRNAMGWYRQPPWKERELVAAISRSGGRTYYADSVKGSFTISRDNAKNTVYLQMISLKPDDTAVYYCAVVTQFGDGYYWGQGTQVTVSS | high polyreactivity
24 | QVQLVESGGGLVQAGGSLRLSCAASGLIFGLYSMGWYRQAPGKERELVAAISYRTDSTYADSVKGRFTISRDNAKNTVYLQMNSLKPEDTAVYYCAADLRVSVRYYYWGQGTQVTVSW | low polyreactivity
25 | QVQLVESGGGLVQAGGSLRLSCAASGITFSFYAMGWYRQAPGKERELVATIDSGGSTNYADSVKGRFTISRDNAKNTVYLQMNSLKPEDTAVYYCAVVFHYSTIGGGYRPRMYYWGQGTQVTVSS | low polyreactivity
26 | QVQLVESGGGLVQAGGSLRLSCAASGLIFSEYAMGRSRQAPWKERELVAAIRSDGGSTYYADSVKGRFTISRDNAKNSVYLQMNSLKPEDTAVYYCNAPYRRSAKFRRYGYDYWGQGTQVTVSS | high polyreactivity
27 | QVQLVESGGGLVQAGGSLRLSCAASGSTFLWYAMGWYRQAPGKERELVATISGSGGSTYYADSVKGRFTISRDNAKNTVYLQMNSLKPEDTAVYYCARDTLGGTSLGDYWGQGTQVTVSS | high polyreactivity
28 | QVQLVESGGGLVQEGGSLRLSCAASGNTLRVYAMGRYRQAPGTERELVAAISSSGGSTYYADSVKGRFTISRDNAKNTVYLQMYSLKPEDTAVYYCAKDNGPWFAYDYWGQGTQVTVSS | low polyreactivity
29 | QVQLVESGGGLVQAGGSLRLSCAASGSTFRQNAMGWYRQAPGKERELVAAITYRVASTYYADSVKGRFTISRDNAKNTVYLQMNSLKPEDSAVYYCAAYKRRSNGRYWTYDYWGQGSQVTVSS | high polyreactivity
30 | QVQLVESGGGLVQAGGSLRLSCAASGSIFYSNAMGWYRQAPGKERELVAAISDGGTSTYYADSVKGRFTISRDNAKNTVYLQMNSLKPEDTAVYYCAAESTLQDWNWYKYYYWGQGTQVTVSS | low polyreactivity
31 | QVQLVESGGGLDQAGGSLRLISAASGYVMGWYRQAPEKEKELVATITRGTSTYYADSVKGRFTISRDNAKNTVYFQMNSLKPDDTAVYYCAARTTSGEWPPGNICTYLYDYWGQGTQVTVSS | low polyreactivity
32 | QVQLVESGGGLVQAGGSLRLSCAASGRIFAYNTMGWYRQAPRKERELVAVITSGGATNYADSVKGRFTISRDNAKNTVYLQMNSLKPEDTAVYYCAKRPYGRSGGSRYDYWGQGTQVTVSS | high polyreactivity
33 | QVQLVESGGGLVQAGGSLRLSCAASGIIFTTNAMGWYRQAPGKERELVATITSGGGTYYADSVKGRFTISRDNAKNTVYLQMNSLKPEDTAVYYCAATPGWGPWIFDHSYVDFDYWGQGTQVTVSS | low polyreactivity
34 | QVQLVESGGGLVQAGGSLRLSCAASGSTFNDYVMGWYRQAPGKERELVAAISRSGGSTYYADSVKGRFTISRDNAKNTVYLQMNSLNPEDTAVYYCAAASPGPWRYDYWGQGTQVTVSS | high polyreactivity
35 | QVQLVESGGGLVQAGGSLRLSCAASGIIFQAYDMGWYRQAPGKERELVAAISYSGGSTYYADSVKGRFTISRDNAKNTVYLQMNSQKPEDTAVYYCAATFYGYFDSVFSWGYYYCGQGTQVTVSS | low polyreactivity
36 | QVQVVESGGGLVQAGGSLRLSCAASGSIFYDYAMGWYRQAPGKERELVAAISWSGGRTYYADSVKGRFTISRDYAKNTVYLQMNSLKPEDTAVYYCAATTGVRSRRYYYWGQGTQVSVSS | low polyreactivity
37 | QVQLVESGGGLVQAGGSLRLSCAASGFTRIYAMGWYRQAPGKEREMVAAISQRGGRTYYADSVKGRFTISRDNAKNTVSLQKNSLKQEDTAVYYCNSDLRSYNYPEYEYDYWGQGTQVTVSS | high polyreactivity
38 | QVQLVESGGGLVQAGGSLRLSCAASGITFYRNAMGWYRQAPGKERELVAAIDVGDGTYYADSVKGRFTISRDNAKNTDYLQMNSLKPEDTAVYYCNKTFLFLEYDSWGQGTQVTVSS | low polyreactivity
39 | QDQLGESGGGLVQAGGSLRLSCAASGYIFGTYAMGWYRQATGKERELVAAISVGGGSTYYADSVKGRFTISRDNAKHTVYLQMNSLKPEDTAVYYCAAVQLYQKHQITYVAHEYWGQGTQVTVSS | low polyreactivity
40 | QVQLVESGGGLVQAGGSLRLSCAASGRTFGKYAMGWYRQAPGKERELVAGISSRGGSTYYADSVKGRFTISRDNAKNTVYLQMNSLKPEDTAVYYCAKRPLTSNASQGDYWGQGTQVTVSS | high polyreactivity
41 | QVHLVESGGGLVQAGGSHSLSCAASGITFPLYVMGSYRQAPGKERELVAAISASGGSTYADSVKGRFTISRDNAKNTVYLQMNSLKPEDTAVYYCNAAVYVGYEYDYWGLGTQVTVSS | low polyreactivity
42 | QVQLVESGGGLVQAGGSLRLSCAASGRIFGENAMGGYRQAPGKEREFVAVISISDASTYYADSVKGRFTISRDNAKNTVYLQMNSLKPEDTAVYYCAADLTDFLYVASDYWGQGTQVTVSS | low polyreactivity
43 | QVQLVESGGGLVQAGGSLRLSCAASGRTFGVYMGWYRQAPGKERELVAVISSGDSTNYADSVKGRFTISRDNAKNTVYLQMNSLKPEDTAVYYCNAYGSDRLTLDDYWGQGTQVTVSS | low polyreactivity
